# Measured values published in the supplement of paper PMC11780869.
# Tested on: Bacillus subtilis
# Assay: cleaved RNA product abundance (RNA/gDNA barcode ratio) relative to median wild-type variant (ratio to wild type); higher = more accumulation of the downstream cleavage product
# Outline: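 B. subtilis strains with chromosomally integrated reporter mRNAs (truncated aprE or tetM) holding barcoded, mutagenized RNase Y cleavage-site windows grew in LB at 37°C from OD600 0.0003 to 0.3. Cleaved product abundance is each construct's RNA:gDNA barcode ratio, scaled to the median construct with the unmutated site. It came from sequencing barcodes of gel-selected, reverse-transcribed cleaved RNA and of genomic DNA.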
# [1] = experiment (reporter, strain, medium): exp 8a: truncated aprE reporter, strain BJT201 with 2% xylose (RNase J1 expressed), cleavage site: glnRA (positions -5 to +31 mutated)
# [2] = experiment (reporter, strain, medium): exp 2b: truncated aprE reporter, strain BJT200, cleavage site: cggR-gapA (positions -7 to +36 mutated)
# [3] = experiment (reporter, strain, medium): exp 4a: truncated aprE reporter, strain BJT201 with 2% xylose (RNase J1 expressed), cleavage site: cggR-gapA (positions -7 to +36 mutated)
# [4] = experiment (reporter, strain, medium): exp 6: tetM reporter, strain 168, cleavage site: cggR-gapA (positions -7 to +36 mutated)
Sequence,cleaved RNA product abundance [1],cleaved RNA product abundance [3],also measured
CGACATGTCCCGCTTCTTTCATTAATCCGTTGGCAACTGTTTAGCTATATACATTTACCTTTTAAGAGGAGGAAT,0.38,–,–
ACAGACGAAGGAGCCGCAAAGAAGTTATTAATGGATGAATAATCCCTCAATATAAATTTCTCTCACTTATTTAAA,–,0.138,cleaved RNA product abundance [2]: 0.112
ACAGACGAAGGAGCCGCAAAGAAGTTATTAAGGGATGAATCATACCTCAATATAAATATCTCTCACTTATTTAAA,–,0.215,cleaved RNA product abundance [2]: 0.164
ACAGACGAAGGAGCCGCATAAAAGTTATTAAGGCATGAATAATCCCTCAATATAAATATCTCTCACTTATTTAAA,–,0.0533,–
ACAGACGAAGGAGCCGCAAAGATGTTATTAAGGGATGAATAATGCCTCAATATAAATATCTCTCACTTATTTAAA,–,0.186,–
ACAGACGAAGGAGCCGCAAAAAAGTTTTTAAGGGATGAATAATCCCTCAATATAAATATCTCTCACTTATTTAAA,–,0.435,cleaved RNA product abundance [2]: 0.281
ACAGACGAAGGAGCCGCAAAGAAGTTGTTAAGGGATGAATAATCCCTAAATATAAATATCTCTCACTTATTTAAA,–,0.376,cleaved RNA product abundance [2]: 0.274
CGACATGTCCCGCTTCTTTCATTAATCCGTTAACAACTGTCTTGCTATATACATTTACCTTTTAAGAGGAGGAAT,0.0713,–,–
CGACATGTCCCGCTTCTTTCATTAATCCGTTAGCAACTGTTATGCTATATACATTTACCTTTTAAGAGGAGGAAT,0.695,–,–
ACAGACGAAGGAGCCGCAAACAAGTTATTAAGGGATGAATAATCCCTCCATATAAATATCTCTCACTTATTTAAA,–,0.207,–
ACAGACGAAGGAGCCGCAAAGAAGTTATTAAGGGATCAATAATCTATCAATATAAATATCTCTCACTTATTTAAA,–,0.209,–
CGACATGTCCCGCTTCTTTCATTAAACCGTTAGCAACAGTTTTGCTATATACATTTACCTTTTAAGAGGAGGAAT,1.01,–,–
ACAGACGAAGGAGCCGCAAAGTAGTTATTAAGGGATGGATAATCCCTCAATATAAATATCTCTCACTTATTTAAA,–,0.537,–
ACAGACGAAGGAGCCGCAAATAAGATATTAAGGGATGAATAATCCCTCAATATAAATATCTCTCACTTATTTAAA,–,1.08,cleaved RNA product abundance [4]: 0.738
ACAGACGAAGGAGCCGCAAAGAAGTGATTAAGGGATGAATAATCCCTCAATATAAATATCTCTCACTTATTTAAA,–,0.391,cleaved RNA product abundance [2]: 0.318; cleaved RNA product abundance [4]: 0.274
ACAGACGAAGGAGCCGCAAAGAAGTTATTTAGGGATGAATAATCCCTCAATATAATTATCTCTCACTTATTTAAA,–,0.52,–
CGACATGTCCCGCTTCTTTCATTAATCCGTTAGCATCTATTTTGCTATATACATTTACCTTTTAAGAGGAGGAAT,1.53,–,–
CGACATGTCCCGCTTCTTTCATTATTCCGTTAGCAACTGTTTTGCTATATAGATTTAACTTTTAAGAGGAGGAAT,0.911,–,–
ACAGACGAAGGAGCCGCGAAGAAGTTATTAAGGGATGAATAATCCGTCAATATAAATATCTCTCACTTATTTAAA,–,–,cleaved RNA product abundance [2]: 0.145
CGACATGTCCCGCTTCTTTCATTAATCCGTTAGCGACTGTTTTGCTATATACATTTAACTTTTAAGAGGAGGAAT,0.418,–,–
CGACATGTCCCGCTTCTTTCATTAATCCGTTAGCAACTGTTTTGCTATATACTTTTACCATTTAAGAGGAGGAAT,0.769,–,–

Sequence,cleaved RNA product abundance [1],cleaved RNA product abundance [3],also measured
ACAGACGAAGGAGCCGCAAAGCAGTTATTAAGGGATGAGTAATCCCTCAATATAAATATCTCTCACTTATTTAAA,–,0.658,–
ACAGACGAAGGAGCCGCAAAGAAGTTATTAAGGGAGGAATAATCCTTCAATATAAATATCTCTCACTTATTTAAA,–,0.283,–
CGACATGTCCCGCTTCTTTCATTAATCCGTTATCAACTGTTTTGCGATATACATTTACCTTTTAAGAGGAGGAAT,0.168,–,–
ACAGACGAAGGAGCCGCAATGAAGTTATTAAGGGATGTATAATCCCTCAATTTAAATATCTCTCACTTATTTAAA,–,0.25,–
ACAGACGAAGGAGCCGCAAAGAAGTTAATAAGGGATGAATAACCCCTCAATATAAATATCTCTCACTTATTTAAA,–,0.192,–
ACAGACGAAGGAGCCGCAAAGAAGTTATTAAGGGATAAATAATCTCTCAATATAAATATCTCTCACTTATTTAAA,–,0.355,–
ACAGACGAAGGAGCCGCAAAGGAGTTATTAAGGGATGAAGAATCCCTCAATATAAATATCTCTCACTTATTTAAA,–,0.859,–
ACAGACGAAGGAGCCGCAAAGAAGTGATTAAGGGATGCATAATCCCTCAATATAAATATCTCTCACTTATTTAAA,–,0.51,–
CGACATGTCCCGCTTCTTTCATTATTCCGTTAGCAACTGTTTTGCCATATACATTTACCTTTTAAGAGGAGGAAT,0.346,–,–
CGACATGTCCCGCTTCTTTCATTAATCCGTTCCCAACTGTTTTGCTATATACATTTACCTTTTAAGAGGAGGAAT,0.392,–,–
ACAGACGAAGGAGCCGCAAAGAAGTTTTTAATGGATGAATAATCCCTCAATATAAATATCTCTCACTTATTTAAA,–,0.175,–
ACAGACGAAGGAGCCGCAAAGAAGTTATTAAGGGATGAATAAACCCTCAATATAAATAACTCTCACTTATTTAAA,–,0.464,–
ACAGACGAAGGAGCCGCAAAGAAGTTATGAAGAGATGAATAATCCCTCAATATAAATATCTCTCACTTATTTAAA,–,0.0998,–
ACAGACGAAGGAGCCGCAAAGAAGTAATTATGGGATGAATAATCCCTCAATATAAATATCTCTCACTTATTTAAA,–,0.169,–
ACAGACGAAGGAGCCGCAAAGAATTCATTAAGGGATGAATAATCCCTCAATATAAATATCTCTCACTTATTTAAA,–,0.23,cleaved RNA product abundance [2]: 0.196
ACAGACGAAGGAGCCGCAAAGAAGTTACTAAGGGATGAATAATCCCACAATATAAATATCTCTCACTTATTTAAA,–,0.153,cleaved RNA product abundance [2]: 0.126
CGACATGTCCCGCTTCTTTCATTAATCCGTTCGCAACTGTTTTACTATATACATTTACCTTTTAAGAGGAGGAAT,0.418,–,–
CGACATGTCCCGCTTCTTTCATTATTCCGTTGGCAACTGTTTTGCTATATACATTTACCTTTTAAGAGGAGGAAT,0.851,–,–
ACAGACGAAGGAGCCGCAAACAAGTTATTAAGCGATGAATAATCCCTCAATATAAATATCTCTCACTTATTTAAA,–,0.0647,cleaved RNA product abundance [2]: 0.0729
ACAGACGAAGGAGCCGCAAAGAAGTTATTAAGGGAAGAATAATCCCTGAATATAAATATCTCTCACTTATTTAAA,–,0.374,–
ACAGACGAAGGAGCCGCAAAGAAGTTATTAAGGGATGAATAATTCGTCAATATAAATATCTCTCACTTATTTAAA,–,–,cleaved RNA product abundance [2]: 0.0726

Sequence,cleaved RNA product abundance [1],cleaved RNA product abundance [3],also measured
ACAGACGAAGGAGCCGCAAAGAAGTTATTAAAGGATGAATAATCCCTCAATATAAATATTTCTCACTTATTTAAA,–,0.247,–
CGACATGTCCCGCTTCTTTCATTAATCCGTTAGCAACTGTTTTGCTATATACATTTACTTTTTAAGAGGAGGAAT,1.23,–,–
CGACATGTCCCGCTTCTTTCATTAATCCGTTAGAAACTCTTTTGCTATATACATTTACCTTTTAAGAGGAGGAAT,0.377,–,–
ACAGACGAAGGAGCCGCAAAGATGTTATTAAGGGATAAATAATCCCTCAATATAAATATCTCTCACTTATTTAAA,–,0.906,–
ACAGACGAAGGAGCCGCAAAGGAGTTATTAAAGGATGAATAATCCCTCAATATAAATATCTCTCACTTATTTAAA,–,0.108,cleaved RNA product abundance [2]: 0.161
CGACATGTCCCGCTTCTTTCATTAATTCGTTAGCAACTATTTTGCTATATACATTTACCTTTTAAGAGGAGGAAT,1.64,–,–
ACAGACGAAGGAGCCGCAAAGCAGTTATTAAAGGATGAATAATCCCTCAATATAAATATCTCTCACTTATTTAAA,–,–,cleaved RNA product abundance [2]: 0.136
ACAGACGAAGGAGCCGCAAAGAAGTTATTAACGGATGAAGAATCCCTCAATATAAATATCTCTCACTTATTTAAA,–,0.17,–
CGACATGTCCCGCTTCTTTCATTAATCCGTTAACAACTGTTTTTCTATATACATATACCTTTTAAGAGGAGGAAT,0.304,–,–
CGACATGTCCCGCTTCTTTCATTAATCCGTTAGCAACTGTTTAGCCATATACATTTACCTTTTAAGAGGAGGAAT,0.259,–,–
ACAGACGAAGGAGCCGCAAAAAAGTTATTAAGGGATGAATAATCCCACAATATAAATATCTCTCACTTATTTAAA,–,0.254,cleaved RNA product abundance [2]: 0.237
ACAGACGAAGGAGCCGCAAATAAGTTATTAAGGGATGAATAATCCCTAAATATAAATATCTCTCACTTATTTAAA,–,0.865,cleaved RNA product abundance [2]: 0.668
ACAGACGAAGGAGCCGCAAAGAAGTTATTAAGGGATGAATAATCCCTCATTAAAAATATCTCTCACTTATTTAAA,–,–,cleaved RNA product abundance [2]: 0.116
CGACATGTCCCGCTTCTTTCATTAATCCGATAGCAACTGTTTTCCTATATAAGCTTACCTTTTAAGAGGAGGAAT,0.295,–,–
ACAGACGAAGGAGCCGCAAAGAAGTTATTAAGGTATGAATAATCCCTCAATATAAACATCTCTCACTTATTTAAA,–,0.124,–
CGACATGTCCCGCTTCTTTCATTATTCCGTTAGCAACTTTTTTGCTATATACTTTTACCTTTTAAGAGGAGGAAT,0.558,–,–
CGACATGTCCCGCTTCTTTCATTAATCCCTTATCAACTGTTTTGCTATATACATTTACCTTTTAAGAGGAGGAAT,0.249,–,–
ACAGACGAAGGAGCCGCAAAGAAGTTATTAAGCGATGAATAAGCCCTCAATATAAATATCTCTCACTTATTTAAA,–,0.108,–
CGACATGTCCCGCTTCTTTCATTAATCCGTTAGCAACTGATTTGCTATATAGATTTACCTTTTAAGAGGAGGAAT,0.979,–,–
